According to PMC11063129:

Target: T1, Twinkle (mitochondrial DNA helicase) (human, UniProt Q96RR1 43-684, del1-42)
T1 sequence: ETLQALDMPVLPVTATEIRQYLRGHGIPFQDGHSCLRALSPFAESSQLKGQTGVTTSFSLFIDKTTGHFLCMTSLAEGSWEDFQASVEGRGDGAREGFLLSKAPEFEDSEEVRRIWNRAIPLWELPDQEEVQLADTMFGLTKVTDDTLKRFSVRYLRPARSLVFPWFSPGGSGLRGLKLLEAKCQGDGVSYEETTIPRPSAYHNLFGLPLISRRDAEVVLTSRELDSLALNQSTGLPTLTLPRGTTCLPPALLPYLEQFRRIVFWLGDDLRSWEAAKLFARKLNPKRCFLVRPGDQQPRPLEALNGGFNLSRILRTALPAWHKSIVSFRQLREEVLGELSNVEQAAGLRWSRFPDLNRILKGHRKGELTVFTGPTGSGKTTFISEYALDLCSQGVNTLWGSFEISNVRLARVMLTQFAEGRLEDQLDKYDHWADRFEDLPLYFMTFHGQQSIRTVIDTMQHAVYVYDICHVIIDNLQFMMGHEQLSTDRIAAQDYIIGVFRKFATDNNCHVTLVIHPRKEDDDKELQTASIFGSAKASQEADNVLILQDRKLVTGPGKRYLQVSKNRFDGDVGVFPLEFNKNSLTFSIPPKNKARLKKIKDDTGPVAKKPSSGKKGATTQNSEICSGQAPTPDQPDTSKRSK
Assay: FAM fluorescence quenching titration

TTTTTTTTTTTTTTTTTTTTTT (ssDNA) [BHQ1-dT22]
Kd: 27.7 ± 3.8 nM
